Results as given in a protein production outcome set (Wang et al. 2014).
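Further: failed if final PepcDB status was selected cloned or expressed and not failed if soluble or beyond.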

Experiment: label from the status in PepcDB records
With “MSVSVRSYLSPTLVLLAFDWPDAQRRDDFLGFAIKRTPGFWSADGKTRAATSWLPNRLTFDGPAAHTQGDAPTDQAPIQKFMWWDARIDPPDRGRAFRYDVYPVVGTPASLRVLEADAGGCTVTLPAHVEGGVGTWFNRAVVSSQAFAKQVRALRLADGAAPSPDAARRLRTWLANDLEETFGLMLGADARRAVSAVYHLTDPLWAIPAFDAFGRAHGADALAIVYDAHETKRGSGEPPLPSPNQAAVEQLTGVATLAPRDKTRIMHDKFIVAGDEAGPARVLTGSANFTTEGITEQANVLHTFESAALAGLYNACARALASNPCVAETARLAPGWSEPVEVGTARVRVSFSPEPRGARTQIDTIVDAIRGARHSVVFCLFMPTDAALRDACFAAGDRGLMMFGLVNAISARGAQQADADRRDGKTLDAARLANLELYHRSRSNRDVIDAAYFSPATVPAGFEAELRLFPGEAPPPYPPVVVHHKFIVIDAEGANPIVYSGSANMSANSEHYNDENLLEIRDARVAGIYLAEFLRLYEHYRARALAIASRRGNGSGAGGAAGPHGGLALQPDSRWAKKYFVDASPEEKARIALAAPVAAR” the protein production was “failed”. In the case of “MSWLIHAGEGRQYQVAPPVSWSQSYAEARMTDIQRLDDQTVERIAAGEVVERPASVVKELVENAIDADASRVDVVVEAGGTDGIRVTDDGIGMDREAVKTAVEEHTTSKIRDIADLEGGVGTLGFRGEALHAIGAVSRLTIRTRPRGGDVGTELVLEGGDVTSVSPAGCPEGTTMAVEDLFYNVPARRKYLKQESTEFAHVNTVVASYALANPDVAVSLTHGDRETFSTTGQGDLRETVMSVYGREVAESMISVGAGSEATGSGDEMDSFPDGPLDGVHGLVSHPETNRAGREYLSTYVNGRYVRAGTVRDAVIDAYGTQIAPDRYPFAVLFLDVPAGDVDVNVHPRKMEVRFADDEGVREQVRTAVEDALLREGLLRSTAPRGRSAPEQTEITPESDGATDSGGERAAPNGRDAIDDATTSGQTDTTATENSAEAPAQEPDTAPTARPDGTQTETGNCESSDTAPSIQSADTKPSSETGRTDGTSGESGTGQTGGSVSGGDSDSERPGASATGQTAAERGERKFTGGQEQARLGDDPEATHESLPSMRILGQLADTYVVAETDDGLVLVDQHAADERVNYERLKAKFEGETTTQALANPVELGLTAREAEVFDRRSDALASLGFHTARTGERSVEVRTLPGVIADAAGPDIVRDVLGAFVAGDDEAAATVEAAADELLGDLACYPSVTGNTSLTEGSVRELLAALDDCENPYACPHGRPTVIHIDRQELEDRFERDYPGHGGRRR”, the protein production is reported as “failed”. In the case of “MSYAKEMLDAIEAGQMETAKQLFTQVLAHDDDETQYNLAEELYALGFNGQAKRLYQGLLGRYPDQGDLATALADIAVSDGDTDAALNYLSRIQPGDPAYVQSLVSAADVYQTLGLYEVSEQKLLEAKRLAPDEPVVTFALGEFYFDWGHFAEAISAYNELLAAGTTELAGVNIEARLAASLAQTGQYEDAVAAYEDVGVDALDLNGRFELGGLYLQLDDPAKAITNLQAVIDSDPSYANAYLPLARAYEAQNQPDKALDTVQAGVMVDDTNPTLYALGGKLALSEDNVKLAETYLQKALAIDPEDQGNMLAWSNFLVQEERDQENVDFLDQIDRSGDVDPQIYWNMAKSYDRLENIKKARENYLLAFNRFQDSPDFLHDIIDFFQSTGARAELKAALVRYLKLVPTDDEMQARLDELNAETDLEHHHHHH”, the protein production is reported as “not failed”. With “MSYEAIMLERNGAVGVLTFNRPEVLNAYNRTLAADIITGFNELVADKSVRAIVLTGAGKAFMAGADINMVNGWTKLGNAAKIKEDLRQLVNPNMIEDCPKPTIAAVNGLAFGMGCELAMACDFRIAAEKAQFGQPEVKLGIIPGAGGSQRLRELVGPTRALEMISTGDPIDAQEAYRIGLVNQVVPRDELMEAVNAFAGRLIDKGAVVLDICKKLVYEGGDLPLRGGIDYEQDQFCKILLTADAQEGTLAFLEKRKPVFNKG” the protein production was “failed”. In the case of “MSYKVLPLSEVMSHEFGLIEGNFHNISEADIASAIPSHLTFEQLKQHLYEGNLALVSDTPQTPALLSYNDPIGPKTWRLNSEVISELSDDAANNLLAITKTTRATGGYRSCIGETSTLERVYTPQPIATESEEEITKEFEYSFEVGCSDATIKKMVHSDFALAKTEKENAVTRWEQTNTEQGTRYTALCVFDEPKRLNIHIADDNLGLTPLEAVTLQKAGSCKTDEGFIPVVPAVRLGERLGLPTEGYYYHFNDGELVQEYKILGEEKWAFYATQSTQDKLNDERGFTKDQSAILVYWKLADQIIENQYIIYLERQITREELDNLSEDWLCENGIKLDIPALFDAVKQPEEARSEGNNDETQAEQTAATHTVTVGEDWQSIAELYGMGAKALLLLNPVFEADPLSLAVGDEIIVAEKQQQQAPDKKNTFPPLRPQTYNNIRNSHYQHSDPLLGLTKYRAINTADCIEGDVVILNLKDATSSIVFAKSCTRPEGCIEIGDQQESISNFGPWSFFFAQANANPAAVIPAIQATQAQMAMGSSAAVAGSPEQMQQTQTAAMQLDKLAGTLKEKIVEGYRWQVEGIGALFAMQQSLFGDNTQYTDQDLRQVTTAQSRVRVHITEPQGGEFYPHVQGYHVDDTRIPIKYVKQGNNGQLSVAIEENGPTIYWTPEENGEASWQTTPDHSDGFEKDDILVTPIHSDSDANVTVTPAPEEKDWRDAILVFPESSGIAPLYVVYKESPRDKPGVVTGKGEDIFGIWLADAGKDLGAPIPSQIADKLRGREFSSFDAFREGFWYAVGEDQTLINQFSRANQRLIKRGRSPFSLPSEQVGGRQRYELHHKEEIQYGGEVFHVDNLCVLTPKRHISIHKDQ”, the protein production is reported as “failed”. In the case of “MSYLDTATDLPNQTLFLEYLNIALSNARRHHAQVGVLLCQINNWSDLKRKRGDAVANAFLQEAGQKLKSNLRNGDIVSRWDKDEFIFLVSKVQDTSSLLGIAQRLMKPVLAPVTAGGRPFQPEITYGVALYPVDGEQVNDLIGHIRENLQQLLPQPTNPGSGLEHHHHHH”, the protein production is reported as “not failed”. For “MSYNFEEERVIKEIREKNAKRVLLQFPEGLKYFSIDIVKKLREKLPNVNFIISGEPSWGACDIAEDEAQQVNADLIIHFGHTPYTWYYPKFPTIFINAESNLDISENALHSLENDISKYNGRKISLTATLQHVRLLSKIKSFLEDKGYDIVIGKPSNRFMFDGQVLGCDYKAAEVEADIYVIVSGGLFHALGLGLATNKPTIKLDPYLQKSEDITNDVRKILKVRYGKILQALDKRSWVIIQGVKVGQNRPNMIKYFYDKLTEKGYDVFTVTNKVLTLDILRNLDRNYIDVFLVTSCPRLPIDDLYNYEKPVLTPGEAKMIINNSLEPYIFPW”, the protein production was “failed”. In the case of “MSYSKEVNRYVFPLVATNLVQVLIGQISLHFAVDNSNAALSGISVIQNFLFAFGGILGAFSLSFNIRGAKAFYNKEYQRFKNLLKSSLLIDIGIGLSFILFCLGLSRPFLKVFYGFDGQLLELSTTYFKIMSPYILLTLLIFLFSNLLKIEKKTKPIFWIGTLSSVLDVLLNYYLVPLLGIRGAAISSILSLLVIVLGYFIFVKSLVFQALQEASTSKLELIRFGIPLSIQEILESVLFIMAFDAFMGRQGLRILSIYAVVSQLFAIVRTPAFMYAGSIAIFLPEARKKEDEKALIATIFRNSYAVIFIFACLVTVFSNPFAHFLSDEVIDNVLPFTLYTVVVMGATPLYESSKMLLQSNDDEQWVLKITSIVNILSILILLVLQLMGKQTYQSLYGIYGLSLIVLSILFIKRNSEKRVSSRKMTM”, the protein production is reported as “failed”. In the case of “MTAASFAQILLLLGTTALVVAVFQWLRVPSSLAYLVVGVLLGPHTGGPVIENPEIHGAAEFGIVFLMFTIGLNLSLPQVHALRHLVLGLGTGQVVLTTLVVGAAAFAFGLSPEAAFVVGAVFAQSSTAIIGKQLAEQGEEYSRHGRLAVAMSVFQDVTAVPLIVVVPVLAVPSLRVLGESLAWALAKAVLAFVLVFFAGRWLLRPLFHAVASRRSAELFTLTVLLVSLGAGGLTYQLGLSVAFGAFLVGMMLGETEFRHQVESTIRPFRDVLLGLFFVSIGMLFDPSLMEGTWQWALGGAFVLLAAKTVLVAVLVRATGIDLATAWRVGLLVAVGGEFGFALLAIALDAGVISQLTGQIVLMAVLLSMITAPFLIRYNRVLVEGWFRPPPGEEGALSAGPGVAGSPHDHVIICGYGRIGQNIGRFLEEERIPYVALDLDPQRVKEARIACEPVYYGDSSERDMLEAVGIGKARLVVVSHEDLAAAHKVLHHAAALRPGLPVMVRTRDESHVEELRRAGAAEVVPETLEAGLMIASQALLLLNVPLSRVARRIREQRLNRYLLLREFFRGDETFSDDVQSQDGDRLRAVPLPPGCRVAGCTLAELALENVVVTALVRHGVRELAPAPETRLAEGDAVVLFGAVSDLDKAERRLLG”, the protein production is reported as “failed”. For “MTAEILVFSLIIPLVVAFILPALKPKAATWLSAISFLIPMFVTLGFLLTTKETIEVPIMSLPAPVGEFYLLADPISNAFGFTICLVSAMVAFYSLPYMKHRFEEMLHDGEIRSIEWEFRKYWFLYNLYAVAMLWLVYAGNFILLYIFLEISLLASFLLIYMYGYGNRQWVAVLYFVWTHIAGVLALLGILIIGFENSTMAFNAVKAVGFTAWLLIFLGMLVKLPGLGPHIWLPWAHAEAPTPVSALLSPLTVGLAGYVLLRVYMIDSSFIDQYRDIIIAYAIVSSIYAGFSVFKQKDYKRLLAYSTVSQMGYVLIALCLGSYGLLGVVIQYISHAFGKSILFMTAGAIIASFHGLRDINRMSGMHEYVPTIANAALLGFMTLSGILTIGMFGEFYILAGLTTIYGFNLAVILAVVVVFIISGLYSFYTMKVIYYGTPAGYEKPKVSRLLDVPLYVVAFFSVAFIFPPLSTALLSGLKVVLGIGGVMP”, the protein production was “failed”. For “MTAGGPLITAALTAYDAEDTIAGALASALAQDWPSLEVLILDDASRDGTRKVIEAVITERGDQGPPIRLIALDKNGGVAQARNRLLAEAKGEVIAFFDDDDISAPDRLRRQYARLIAAERETGAGLVFCHAARCQILPDGGERLEGTMGEEGGPIPGGDAVVRRILLGTLSPGVRGSCATCSQMARTASYRALGGFDPTLRRAEDTDLCLRAALGGAVFAGLSAPLVTQRLTLGGDKTPREDHRAYQALLNKHRATLAKTGWLTFYARWQDIRLAHLEGRTGRVVLGLVGLGLSHPLKLARKIVWSLPAAGTRAAYHRQHRKDTS”, the protein production was “failed”. For “MTAGLSAVVVGADRLGNIPDLLKGHNISITHHISGRDPSHQKKTLQLPSGTQLVILLTDFLGHNVMKTFRHAAQRGGIRVVACRRSVCSMQQALHQCGLCARSLEHHHHHH”, the protein production was “not failed”. For “MTAHFRPAVYDLPRDGHTVFRWEHPPQQATVELERLQRKQSLAAAFRVFARLGFDMGGAGHITVRDPGRPDHFWVNPVGVYFGHVRVRDLLLVNPEGAVIEGEGALNLAAFAIHAALHEAHPEVVAAAHAHSLYGKAWSSLGRLLDPLTQDACAFYERHGLFDNFSGVVLEASEGVRIAAALAGRKALILQNHGLLTVGETVEAAVWRFIAMDNAAQTQLLAEAAGTPRPIPHEVARHTARQVGTEFGGWFSFQPYRERIVREEPDFLDLEHHHHHH”, the protein production was “failed”. With “MTAHWRYLNSLQPLSNLFIQAALRRKVTGTQLPDLGLRSWIAVDNDKLEAYRKVCGFADSSLLPPTYPHALAFTLQMQLMTSPEFPFPLLGLIHLGNQIRTLRPLGGVSQLYISVQATDLRPHPKGATFTLLTQAEDGMGLLWEEESTLLCTAVHLEDAPVPMPEAYLRPLIELDRWRASAQIGREYAKVSGDYNPIHLSAASAKLFGFPRAIAHGMWLKARALAALEDHLPASNVQISVQFQKPVRLPADVTLSASAAGSHGEFRVEGQEGIVHMIGSWQPATD” the protein production was “failed”. In the case of “MTALKICLIGGSGFIGRHLAAQLASRGHRITIASRRTGLPDFRVLPSAELVSADIHDPGQLAGLIAGHDAVVSMVGILHGSRAQFEKAHAQLPEKIVDACRRQGVRRLVHVSALGAAQDAPSDYQQTKALGELAVESSGLDWTILRPSVVFGHGDAFLNMFAGLQKRLPVLPLAGAGCKMAPVWVEDVARAVCECLARKETEGRKLDLAGPETYTLAQLARLAGRASGHPRPVFGLPYGLAMLQAALMEWLPGPTLMSRDNVRSLQWDNVSDQPFPSALLGFEPAALSALAPGWLAGRDRNDTASRYRAKAAR”, the protein production is reported as “failed”.
